The target in this data set is FL-N nucleocapsid protein (SARS-CoV-2, UniProt P0DTC9 1-419). Nature of the data set: sedimentation velocity AUC. The settings on record: protein: commercial; chain copies: 2; single strand.

B1: T10 (ssDNA)
DNA: TTTTTTTTTT
For B1, the binding result is “binds”.

These data come from PMC10075959.
